“Also recorded” adds a separate entry of the source.
Assays:
[1] = tested on: TLR4; experiment: hRetn cellular binding assay on dissociated lung cells from Nb-infected Tlr4+/+ or Tlr4−/− mice; type: cell-based, mouse
Method: (§1) Binding Assay and Flow Cytometry. Single cell suspension of lung tissue was prepared and hRetn binding was measured as previously described in Jang et al., 2015, supra. Briefly, dissociated lung cells were incubated for 1 hour at 4° C. with 0.5 μg recombinant hResistin (Peprotech) or PBS, followed by 2× wash in FACS buffer, incubation with Fc block (5 μg/mL αCD16/32 and 10 μg/mL purified rat IgG1, 5 min at 4° C.). Cells were stained with biotinylated α-hRetn (Peprotech, 30 min at 4° C.) followed by detection with BV605-conjugated streptavidin (BD) and surface marker antibodies. To collect peritoneal exudate cells (PECs), the peritoneal cavity was washed and PECs recovered in 5 mL ice cold PBS. Surface marker antibodies were: F4/80 (clone A3-1), SiglecF (clone E50-2440), CD4 (clone RM4-5), Ly6C (HK1.4), CD11b (clone M1/70), CD11c (clone N418), Ly6G (clone 1A8), MHCII (clone M5/114.15.2) and CD3e (clone 145-2C11), CD115 (clone AFS98), purchased from Affymetrix, BD Biosciences or Biolegend. Cell populations were determined as follows: peritoneal macrophage (F4/80+CD11b+), neutrophils (Ly6G+CD11b+), eosinophils (SiglecF+CD11c−) and monocyte (Ly6C+CD11b+), alveolar macrophages (F4/80+CD11c+). For flow cytometric analysis, all samples were run on the BD LSRII and analyzed on FlowJo (v10).

[2] = biological target: T1, TLR4 (Mus musculus, UniProt Q9QUK6); experiment: as above; type: cell-based; settings: Ly6C+CD11b+ lung cells, Nb-infected mice
T1 construct: from tissue; host or cells: dissociated lung cells (monocytes, alveolar macrophages, neutrophils) of day 7 Nb-infected mice
T1 sequence (Q9QUK6 26-835): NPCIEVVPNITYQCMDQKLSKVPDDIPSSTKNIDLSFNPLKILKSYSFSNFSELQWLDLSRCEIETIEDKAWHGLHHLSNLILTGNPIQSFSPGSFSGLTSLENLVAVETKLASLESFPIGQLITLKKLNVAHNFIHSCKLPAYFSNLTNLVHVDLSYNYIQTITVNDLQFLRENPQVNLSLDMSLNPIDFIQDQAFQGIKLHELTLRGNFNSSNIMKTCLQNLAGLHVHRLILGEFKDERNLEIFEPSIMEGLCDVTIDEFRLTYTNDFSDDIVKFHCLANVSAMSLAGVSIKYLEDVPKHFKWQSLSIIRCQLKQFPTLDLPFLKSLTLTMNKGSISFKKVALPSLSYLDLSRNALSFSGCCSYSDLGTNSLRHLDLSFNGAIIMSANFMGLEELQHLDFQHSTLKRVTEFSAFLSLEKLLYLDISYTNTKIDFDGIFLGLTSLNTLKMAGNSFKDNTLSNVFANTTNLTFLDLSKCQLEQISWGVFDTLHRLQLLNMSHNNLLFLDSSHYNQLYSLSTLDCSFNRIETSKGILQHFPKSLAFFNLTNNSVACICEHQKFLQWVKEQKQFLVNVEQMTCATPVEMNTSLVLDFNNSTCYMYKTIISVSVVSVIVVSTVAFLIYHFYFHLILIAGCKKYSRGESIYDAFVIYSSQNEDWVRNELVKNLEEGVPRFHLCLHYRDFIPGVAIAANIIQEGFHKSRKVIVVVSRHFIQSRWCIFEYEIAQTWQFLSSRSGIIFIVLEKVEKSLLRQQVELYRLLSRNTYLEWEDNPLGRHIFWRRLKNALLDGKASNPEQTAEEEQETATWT
Method: as §1

[3] = tested on: human PBMCs; experiment: Human PBMC functional assay, LPS-induced cytokine secretion (ELISA); type: cell-based
Method: Human PBMCs. Human buffy coat was purchased from Zen-bio. Buffy coat was overlaid on top of Histopaque-1077 and spun at 700g at 25° C. with no brake and PBMCs were recovered from the interphase. PBMCs were plated in 96-well plates and stimulated with mammalian-derived human resistin (1 μg/mL, LifeSpan Biosciences) or hRetn N-peptide (1 μg/mL). After 24 hours, ultrapure LPS (100 ng/mL, Invivogen) was added and supernatants recovered for ELISA at 24 hours. Where indicated, cells were incubated for 4 hours with STAT3 (5, 15-DPP, 50 μM) or TBK1 (BX-795, 1 μM) inhibitors prior to hRetn treatment. For the hRetn competitive binding assay, 1×10^6 cells were incubated with recombinant hRetn (0.5 μg), washed in PBS then incubated with 0.5 μg LPS-biotin (incubations were 30 minutes on ice). Cells were washed in FACS buffer, treated with Fc block, and stained with BV605-conjugated streptavidin and α-human primary antibodies: CD14 (clone M5E2), CD11 b (clone M1/70) and MD2/TLR4 (clone HTA125) purchased from Affymetrix.
Cytokine Quantification. Sandwich ELISAs were performed using capture and biotinylated antibodies for human resistin (Peprotech), IL-10 and TNFα (BD Biosciences) according to manufacturer's instructions. Detection was performed with streptavidin-peroxidase (Jackson ImmunoResearch) and TMB peroxidase substrate (BD Biosciences), followed by addition of 2N H2SO4. Optical density (OD) was captured at 450 nm. Samples were compared to serial-fold dilution of recombinant protein. For Luminex, inflammatory cytokine kits (Affymetrix) were run according to manufacturer's instructions and quantified on Luminex MagPix (Luminex Corp.). For cytokine bead array, cytokine kits from BD Bioscience were run according to manufacturer's instructions on BD LSRII and analyzed using FCAP Array Software.

[4] = human PBMC, pre-treatment then LPS 100 ng/mL

B1: hRetn: human resistin protein (hRetn) having an amino acid sequence of SEQ ID NO: 1; recombinant, E. coli-derived or 293T cell-derived (protein, listed as Homo sapiens)
chain: MKALCLLLLPVLGLLVSSKTLCSMEEAINERIQEVAGSLIFRAISSIGLECQSVTSRGDLATCPRGFAVTGCTCGSACGSWDVRAETTCHCQCAGMDWTGARCCRVQP
[1]; F4/80+CD11c+ lung cells, Tlr4+/+ vs Tlr4−/−
  hRetn binding to alveolar macrophages: TLR4-dependent binding
[1]; Ly6C+CD11b+ lung cells, Nb-infected mice
  hRetn binding to Tlr4−/− monocytes: significantly abrogated
[1]; Ly6G+CD11b+ lung cells, Tlr4−/−
  hRetn binding to neutrophils in the absence of TLR4: not noticeably affected
[1]; lung cells, Nb-infected mice
  frequency of hRetn-bound cells in monocytes: 15%
  frequency of hRetn-bound cells in neutrophils: 8%
[2]
  hRetn binding to Tlr4+/+ monocytes: able to bind hRetn
[3]; human PBMC, 5,15-DPP 50 μM 4 hours prior to hRetn
  hRetn functional effect on TNFα and IL-10 when STAT3 signaling was inhibited: also abrogated
[3]; human PBMC, BX-795 1 μM 4 hours prior to hRetn
  hRetn functional effect on TNFα and IL-10 in the presence of TBK1 inhibitor: abrogated
[3]; [4]
  IL-10 expression after LPS: increased IL-10 expression
  LPS-induced TNFα secretion: significantly more TNFα than cells treated with hRetn and LPS; also recorded: significantly reduced LPS-induced TNFα secretion
